{"source": "paper PMC5500003", "key": {"[1]": {"system": "tau 4R2N (Homo sapiens), P10636-8", "sequence (P10636 other isoform, or with tags, fused parts or gaps)": "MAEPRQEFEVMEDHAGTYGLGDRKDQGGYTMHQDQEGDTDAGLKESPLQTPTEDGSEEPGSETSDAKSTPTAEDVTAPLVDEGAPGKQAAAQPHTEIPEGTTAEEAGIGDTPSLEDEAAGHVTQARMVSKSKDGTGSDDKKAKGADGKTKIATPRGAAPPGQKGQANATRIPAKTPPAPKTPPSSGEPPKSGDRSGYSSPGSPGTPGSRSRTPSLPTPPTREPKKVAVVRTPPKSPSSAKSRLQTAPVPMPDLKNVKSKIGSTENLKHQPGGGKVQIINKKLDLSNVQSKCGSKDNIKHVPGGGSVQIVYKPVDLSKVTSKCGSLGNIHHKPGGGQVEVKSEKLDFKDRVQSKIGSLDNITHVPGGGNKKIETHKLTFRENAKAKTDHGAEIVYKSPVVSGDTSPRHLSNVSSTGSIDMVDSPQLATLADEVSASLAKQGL", "experiment": "EMSA", "conditions": "Hill coefficient 2.8; 26 nM tRNA, 0.5 mM MgCl2, 0.5 mM EDTA, 37 C; native tRNA modifications likely, not described; EMSA: 100 mM sodium acetate pH 7.0, 0.5 mM EDTA, 0.5 mM MgCl2, 0.01% IGEPAL CA-630, RNase inhibitor, 37 C 10 min, TBE 8% gel; ITC: 20 mM ammonium acetate pH 7 …"}, "tau K18 (Homo sapiens)": {"system": "tau K18 (Homo sapiens)", "experiment": "ITC", "conditions": "n = 0.49 tRNA per tau; 20 mM ammonium acetate pH 7; EMSA: 100 mM sodium acetate pH 7.0, 0.5 mM EDTA, 0.5 mM MgCl2, 0.01% IGEPAL CA-630, RNase inhibitor, 37 C 10 min, TBE 8% gel; ITC: 20 mM ammonium acetate pH 7 …"}, "[2]": {"system": "tau 4R2N (Homo sapiens), P10636-8", "experiment": "ITC", "conditions": "n = 0.52 tRNA per tau; 20 mM ammonium acetate pH 7; EMSA: 100 mM sodium acetate pH 7.0, 0.5 mM EDTA, 0.5 mM MgCl2, 0.01% IGEPAL CA-630, RNase inhibitor, 37 C 10 min, TBE 8% gel; ITC: 20 mM ammonium acetate pH 7 …"}}}
{"substance": "tRNALys, unacetylated", "values": [{"measurement": "Kd", "setting": "[1]", "value": 460, "unit": "nM"}]}
{"substance": "yeast tRNA (bulk)", "values": [{"measurement": "Kd", "setting": "tau K18 (Homo sapiens)", "value": 372, "unit": "nM"}, {"measurement": "Kd", "setting": "[2]", "value": 735, "unit": "nM"}]}
